From the DeepSol protein solubility set come the findings set out here.

The nature of this series: soluble on expression in E. coli; label from the status in PepcDB or PDB records.
With “SGVPVYICSSLKPDALAEAAEHQADGSFFVPRAKGLRTQKQWLAFYSESRGSVYVDEGAEHALSEQGKSLLMSGIAGIEGHFSRMDTVTVYSKATKQPLGKGRVLFGSAAAEDLLKSRKAKGVFIHRDDWISITPEIRLLLTEF”, the “soluble on expression in E. coli” value is on record as “not soluble”.

In the case of “MPTTQLHHHYVLCGWHVRSALTLPELPPWSATATPVDADVVIEEGEVPDRLDLHDPVESWLSVGRDGSVLLQVPQVVRIHVHAGRAMRVQRLNRHDESWRLFLLGSALGYLCLQRSLFPLHAACLRIGTQTVAFAGHSGAGKSTLAAALLKRGHGLLSDDLTVIRLDSAGAIMVLPAFPRLKLWRDTLESLQLPVTDAPPVRPGMEKFDLRPSAGFDAAPVRLDAVVVLGDASEPHLQRLSPQHALPLLHGYLARPQAAVRMGLHAATFAHAAAIARQVPVWRLRRPRRFDALDITVDLIEAHVGALEHHHHHH”, the “soluble on expression in E. coli” value is listed as “not soluble”.

In the case of “MADKSAYMGAGGYGSGYMGSNASSSGYAREDYAQGGNGGGQQQQNQGSGGNTNPGGQVFKARTDQSCYLGP”, the “soluble on expression in E. coli” value is given as “not soluble”.

As to “MGSGKERDTFVYLAKLSEQAERYEEMVESMKSVAKLNVDLTVEERNLLSVGYKNVIGSRRASWRIFSSIEQKEAVKGNDVNVKRIKEYMEKVELELSNICIDIMSVLDEHLIPSASEGESTVFFNKMKGDYYRYLAEFKSGNERKEAADQSLKAYEIATTAAEAKLPPTHPIRLGLALNFSVFYYEIMNAPERACHLAKQAFDEAISELDTLNEESYKDSTLIMQLLRDNLTLWTSDISEEGGDDAHKTNGSAKPGAGGDDAE”, the “soluble on expression in E. coli” value is given as “soluble”.

As to “MGSDKIHHHHHHMHFIMMKLFRVVKRGYYISYAILDNSTIIRLDEDPIKALMRYSENKEVLGDRVTGIDYQSLLKSFQINDIRITKPIDPPEVWGSGISYEMARERYSEENVAKILGKTIYEKVYDAVRPEIFFKATPNRCVGHGEAIAVRSDSEWTLPEPELAVVLDSNGKILGYTIMDDVSARDLEAENPLYLPQSKIYAGCCAFGPVIVTSDEIKNPYSLDITLKIVREGRVFFEGSVNTNKMRRKIEEQIQYLIRDNPIPDGTILTTGTAIVPGRDKGLKDEDIVEITISNIGTLITPVKKRRKIT”, the “soluble on expression in E. coli” value is listed as “not soluble”.

In the case of “MRKLSKRLLGTVHVATSSTPPGSPFSLVNRQFLLLPTMDKLMGEICREKQIVDRCKMSIDRKEPYDLISMKQQIEISLSKITAMKMRLFHMQNNSETHNSPCSINQQILNTQLLCHGARKVRESLRKDESPNEKVLRETEQTILVLNEKLDLLSNCCSQKESSLTPISVRRSRGGPSKTNNFPVAVSGFLKIRVTGLADLPNNTKHRSGRYASEHFAQLIKKKKSMFGRHGFRRYPNRSSAVNDYIIVIHVGGKEVATMVWNEKKTMVGGDEETIQLFKSRQLDFEIYHTDSRSLCAIGSMQLESLLDEHDAKFPFATFAHRVVNLIPEGTLHFQTTYSDPEQSMEKKLGDTCTDGVSKLAVSMRKSGSVLARGSKTFYSPRTAISLNQFVPLTPSMKSRTRRIDSLDSYRLISEIGVGAFGTVKLGTKDP”, the “soluble on expression in E. coli” value is “not soluble”.

In the case of “MAHHHHHHMMSQSLNALRSGTACFPTTIAQQRRWITRLYTSYYPGVLYPNQLVQHKQRLPPGVSLSTALKARTQTRQEQSVAGREVPEENETRGVSWTDASSTDVMHTGNARRQEKVSVATGRSYVPLGEVAKLELQGDYCMEGGLFQEALERYGVVAKAYSIAYPENHSQRIGILLKLASAFRHVGRLDSSKVNIENALKMLDASSRPSLELICEALLELGLTREAKSMKNEGAEAYEEAVEVLNLFHNWGESHRMLRLLPRLGRRFNLNFEEKFVYFSPFDYDRTFAIADQCMERAEKVYRETGDSNGIIRVLQCRKEMIDKKFFNLRDFAGRIHTMRGHWMRRAQHLTNAPTPDELLRYTPTIHQVYRDFKYELTAPIGREKEVMPGVNRVVLDMGNPYRRRGRLSNKMLRDADHNFANYVRREEYNA”, the “soluble on expression in E. coli” value is reported as “not soluble”.

Take “MGSDKIHHHHHHMKRTPLFEKHVELGAKMVDFAGWEMPLYYTSIFEEVMAVRKSVGMFDVSHMGEFLVKGPEAVSFIDFLITNDFSSLPDGKAIYSVMCNENGGIIDDLVVYKVSPDEALMVVNAANIEKDFNWIKSHSKNFDVEVSNISDTTALIAFQGPKAQETLQELVEDGLEEIAYYSFRKSIVAGVETLVSRTGYTGEDGFELMLEAKNAPKVWDALMNLLRKIDGRPAGLGARDVCRLEATYLLYGQDMDENTNPFEVGLSWVVKLNKDFVGKEALLKAKEKVERKLVALELSGKRIARKGYEVLKNGERVGEITSGNFSPTLGKSIALALVSKSVKIGDQLGVVFPGGKLVEALVVKKPFYRGSVRREV”: the “soluble on expression in E. coli” value is “not soluble”.
